Measured values taken from the supplement of paper PMC9170038.

Tested on: MS2 coat protein
Test: apparent KD of MS2 coat protein; designed switch direction (-1 OFF switch, 1 ON switch): -1; higher = weaker reporter binding
Summary of the method: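 Designed RNA switches were transcribed on Illumina chips by stalled E. coli RNA polymerase and titrated with SNAP-549-labelled MS2 coat protein from 0.7 or 1.5 nM, doubling to 3 µM. Step length ran from 0.8–1.5 h at the lowest concentration to 10–20 min at the highest. The apparent KD is the median over clusters for each design, from curve-fitted normalised cluster fluorescence.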

[1] = input ligand: microRNA oligo, concentration not stated
[2] = Eterna round: R95, input ligand: microRNA oligo, concentration not stated
[3] = Eterna round: R95, input ligand: FMN 200 uM
[4] = Eterna round: R95, input ligand: none

Sequence	apparent KD of MS2 coat protein (input ligand: FMN 200 uM)	apparent KD of MS2 coat protein (input ligand: none)	apparent KD of MS2 coat protein [1]	apparent KD of MS2 coat protein [2]	apparent KD of MS2 coat protein [3]	apparent KD of MS2 coat protein [4]
AGUCGGUCAGGAUAUGCAGACGUAGACAUGAGGAUCACCCAUGUGACGUGGGCCUGGUUUGUAGAAGGGACGAGCA [EX5 #83] (Eterna round: R97, puzzle: Exclusion 5)	30.2 nM	19.3 nM	–	–	–	–
ACAAGCUUGUAAUGAUAGAACAUGAGGAUCACCCAUGUAAAUGGAAGAACCAAUUAGAUAAGAUAAACUCGUCUUAU [JR_STOV1_Sub002] (Eterna round: R97, puzzle: Sensor, turn-off variant 1)	59.1 nM	69.5 nM	–	–	–	–
AUAUAGAUAGUCAGGAUAUGCUAGUGAUAACAGUAGCAGAAGGGACAUGAGGAUCACCCAUGUGGAUAGCGCAC [Brourd's EX4 #5] (Eterna round: R97, puzzle: Brourd's mod of Exclusion 4)	139 nM	39.7 nM	–	–	–	–
CCAUAGGGAGGAUAUCCAAUAUAUGACAUGAGGAUCACCCAUGUUUCCACUCGUACCUCCGGAGAAGGCCCAUACC [Ex5 #9] (Eterna round: R97, puzzle: Exclusion 5)	22 nM	27 nM	–	–	–	–
GCCUCGUCAGGAUAUCUCCACGUGAGCAAGGCUCACGGGCCAGAGAAGGGACUUGAGGAUCACCCAAGUAAAAC [Ritiatso] (Eterna round: R97, puzzle: Exclusion 4)	428 nM	138 nM	–	–	–	–
UAAUAAUAGCAAGGAUAUGGUUAUUAUAAUAUACCAGAAGGUGCACAUGAGGAUCACCCAUGUUUUAUAAUUUGUAAUUUAAAU [First something] (Eterna round: R96, puzzle: Exclusion NG 1)	–	–	22.9 nM	–	–	–
AGCUGUGGCCGAGGAUAUCUGUUUCAUAAAACCGAAAUAUAAUCGGACAUGAGGAUCACCCAUGUAGAGAAGGCGGUCUCAGCA [Eli eng2 - 097] (Eterna round: R96, puzzle: Exclusion NG 2)	–	–	12 nM	–	–	–
AUUGUUUAUGUAGGAUAUGCCUGGCGUGCCUUUGCAGAAGGACAUGAGGAUCACCCAUGUAUUGCGGUCUGCGUUCAGAUCGCG [salish99_ExNG1_r4_034] (Eterna round: R96, puzzle: Exclusion NG 1)	46.9 nM	27.4 nM	22.5 nM	–	–	–
CUAACACAUGAGGAUCACCCAUGUGAGGAUAUGCGUACGUUGUCCGUAGGCGACGUGCGCAGAAGGCGCUUGGU [JL-ex1-3.20 Eli mod] (puzzle: Exclusion 1)	–	–	–	51.9 nM	–	–
GGUGCGUUUGUGAGGAUAUGCUGGUCCUUGGAUCAGCAGAAGGCACAUGAGGAUCACCCAUGUGGUGUCGGUCC [salish99_Bmod_Ex4_038] (puzzle: Brourd's mod of Exclusion 4)	–	–	–	252 nM	–	–
CUGGACCCGGUAGGAUAUAUUGUGGGCGGGCGUGGAACGACAUGAGGAUCACCCAUGUGAUUGAGGUAGAAGGGCCGAGAGGUU [Excl-NG2-LRO18] (Eterna round: R96, puzzle: Exclusion NG 2)	52.7 nM	61.8 nM	33.8 nM	–	–	–
ACAGCAUAGUUAGGAUAUUGCCGACACUGUGUGUUCCUACACAUGAGGAUCACCCAUGUGAAGCGCGAGAAGGAACUAACUGAA [Eternabot solution 8] (Eterna round: R96, puzzle: Exclusion NG 2)	430 nM	348 nM	179 nM	–	–	–
GUGGUGGGUUUUCCGAGUAACAUGAGGAUCACCCAUGUAUUAGUUUGAUGUAUCAAGCGAAUGGCUCGUCUUAUAUA [JR_SV3TOV1_Sub045] (puzzle: Sensor v3, turn-off variant 1)	–	–	–	14.5 nM	128 nM	107 nM
CCGGCUUAGGAGGAUAUCCCACCCGAAAGGGUGGGAGAAGGCCUAACAUGAGGAUCACCCAUGUGUCCUACCGG [Mod of Eli 15 - Jieux - Exclusion 6] (Eterna round: R97, puzzle: Exclusion 6)	91.2 nM	25.5 nM	–	–	–	–
AAAAAGUGAGGAUAUGCAUAAGGACCCGGGAGGGAAAUAAAACAUGAGGAUCACCCAUGUAGAAGGCGCAAAAA [Exclss2-II] (puzzle: Exclusion 2)	–	–	–	16 nM	17.2 nM	15.7 nM
GGACAUAAAGUCAGGAUAUUAAGGCGAACAAGCGAUGAGAAGGGACAUGAGGAUCACCCAUGUGAUUCUCAUCA [Isedzaor] (Eterna round: R97, puzzle: Brourd's mod of Exclusion 4)	20.5 nM	14 nM	–	–	–	–
GUCAGCUCGUGAGGAUAUACAUGAGGAUCACCCAUGUGAUCAAUAGCAGCUUCGGCUGCAUUAAUGUAGAAGGCACGAGCUGAC [ENG2/5-A1] (Eterna round: R96, puzzle: Exclusion NG 2)	61.8 nM	152 nM	22.2 nM	–	–	–

Sequence	apparent KD of MS2 coat protein (input ligand: FMN 200 uM)	apparent KD of MS2 coat protein (input ligand: none)	apparent KD of MS2 coat protein [1]	apparent KD of MS2 coat protein [2]	apparent KD of MS2 coat protein [3]	apparent KD of MS2 coat protein [4]
UGUUGUUACGUAGGAUAUCCACCAACAGGUGGAAGGAUAUGGAAACAGAAGGUUCGCCAACAGGCGGAGAAGGACGGGUUAACA [pwkr exNG2 2xF7 2xFMN.22] (Eterna round: R96, puzzle: Exclusion NG 2)	42.5 nM	32.3 nM	11.5 nM	–	–	–
CCGACGUGAGGAUAUUAGAACGAGCAGACCUGAGCUCGUUCUGAGAAGGCACAUGAGGAUCACCCAUGUGAGAA [Eternabot (Original) Solution 50] (Eterna round: R97, puzzle: Exclusion 4)	352 nM	31.4 nM	–	–	–	–
GGGAGGGAUACAGGAUAUAUGACAUGAGGAUACAUGAGACAUACAAACAUGAGGAUCACCCAUGUAUAGAAGGGUAAGGGAGGG [Another guess] (Eterna round: R96, puzzle: Exclusion NG 2)	–	–	126 nM	–	–	–
AAGUAGUGACAGGAUAUUGUUCAUGAUAUGGAACAAGAAGGGUUAACAUGAGGAUCACCCAUGUAUCCUCCGUG [Eternabot (L2) Solution 14] (Eterna round: R97, puzzle: Exclusion 6)	401 nM	44.9 nM	–	–	–	–
GCGUUUUGGUGAGGAUAUCGGCCCUAAACCGGGCAACAUGAGGAUCACCCAUGUACGUGAUCCUGCGAGAAGGCACCGAUUAUA [Digeerle] (Eterna round: R96, puzzle: Exclusion NG 2)	122 nM	123 nM	104 nM	–	–	–
GUCACAUGGACAUAGGAUCACAUGAGGAUCACCCAUGUGACUAACAAGCUUUUUGUUCGUCUUAUGUCUAUGUGAAA [Stov1/16-B1] (Eterna round: R97, puzzle: Sensor, turn-off variant 1)	13.5 nM	11.6 nM	–	–	–	–
GUGCAAUGAGGAUAUACGUUGGUGGGCAUCUGUGUGCUCCUACAUGAGGAUCACCCAUGUAGAAGGCAUGUCAC [LRO-Excl2-19] (puzzle: Exclusion 2)	–	–	–	11.7 nM	–	–
GCUGGUCAAGGAUAUACAUUCGUGCUUCGGCACGUAAGAUCACAUGAGGAUCACCCAUGUAGAAGGUGACCAGC [E2/5-C1] (Eterna round: R97, puzzle: Exclusion 2)	700 nM	112 nM	–	–	–	–
ACAAGCUUAAAAGGUGAUAACAUGAGGAUCACCCAUGUUCGUCUUAUAAAGAUCCUAUGUCGAAAGACAUAGGAUCA [Sensor 3, v1 - 68] (puzzle: Sensor v3, turn-off variant 1)	–	–	–	39.4 nM	18.8 nM	20.9 nM
UAGGUACAUGAGGAUCACCCAUGUGAGGAUAUAGAGGAAGAUUGCGAGAGGGAGAGGACUAGAAGGCACAGUGG [JR_Exclu1_Sub035] (puzzle: Exclusion 1)	–	–	–	28.1 nM	37 nM	39.9 nM
UCACGGGACUAAGGAUAUACAUGAUCCAUUUUUGUAGAAGGUAGAAUGUUAGAUCAUAAACUAAACAUGAGGAUCACCCAUGUU [JR_ExcNG1_Sub089] (Eterna round: R96, puzzle: Exclusion NG 1)	–	–	20.2 nM	–	–	–
CCGGAAAGGAAGGAUAUGCUAGACGAUAGUCUAGCAGAAGGUCCUACAUGAGGAUCACCCAUGUGGUCCUCCGG [Mat - Exclusion 6 - Eli Mod - D33] (Eterna round: R97, puzzle: Exclusion 6)	274 nM	1210 nM	–	–	–	–
GCAGGCGACUAGGCUCGUCUUAUUUUGAGAAGAUUGAAAACAUGAGGAUCACCCAUGUUUGUGGGAGAGUUGGAGUG [JR_SV3TOV2_Sub013] (puzzle: Sensor v3, turn-off variant 2)	–	–	–	73 nM	59.4 nM	65.3 nM
GAUUAUGCGAGCUUUAGGGACAUGAGGAUCACCCAUGUUCGUCUUAUUAGUCUAAGUGCACUGACAUACCUAAAUCU [JMF 83] (puzzle: Sensor v3, turn-off variant 1)	–	–	–	23.2 nM	15.8 nM	16.6 nM
GUUCUUCCUGUGAGGAUAUCCAUGUGUCGGUGUGUGGAGAAGGUACAUGAGGAUCACCCAUGUCACCCGCGUUA (Eterna round: R97, puzzle: Brourd's mod of Exclusion 4)	24.3 nM	19.2 nM	–	–	–	–
GUUGUUUAUGUAGGAUAUGCCUGGCGUGCCUUAGCAGAAGGACAUGAGGAUCACCCAUGUAUUGCGGUCUGCGUUCAGAUCGCU [salish99_ExNG1_r4_021] (Eterna round: R96, puzzle: Exclusion NG 1)	37 nM	29.6 nM	25.1 nM	–	–	–
AAGUAGGAUGUUAGGAUAUCGCCCUCGCAAUAGGGCGAGAAGGGACAUGAGGAUCACCCAUGUAGGCGAUAGAA [Laedesed] (Eterna round: R97, puzzle: Brourd's mod of Exclusion 4)	29.3 nM	16.9 nM	–	–	–	–
